B1: C68.138 (antibody, V domains shown)
VH: EVQLVQSGAEVKKPGESLRISCKGSGYSSTNYWISWVRQMPGKGLEWMGRIDLSDSYTNYSPSFQGHVTISADKSISTAYLQWSSLKASDTAIYYCARLLTTVTTDWFDPWGQGTLVTVSS
VL: DIQMTQSPSSLSASVGDRVTITCRASQSISNYLNWYQQKPGKAPKLLIYTASSLQSGVPSRFSGSGSGTDFTLSISSLKPEDFATYFCQQSYNAPPYTFGQGTKLQIK
B2: C68.123 (antibody, V domains shown)
VH: EVQLVESGGGLVQPGGSLRLSCSASGFTFSSYTLHWVRQAPGKGLEYVSSISSNGGSTYYADSVKGRFTISRDNSKNTLFLQMSSLRAEDTAIYYCVKGVWLHDFWSGYPSRWGQGTPVTVSS
VL: DIQLTQSPSTLSASVGDRVTITCRASQSISNWLAWYQQKPGKAPNLLIYDASSLESGVPSRFSGSGSGTEFTLTISSLQPDDFATYYCQQYNSYPWTFGQGSKVDIK
B3: C68.100 (antibody, V domains shown)
VH: EVQLVQSGAEVKKPGESLRISCKGSGYIFNSYWIIWVRQMPGKGLEWMGRIDPSDSYTNYSPSFQGHVTMSVDKSINTAYLQWSSLKASDTAMYYCARVRFGELSWDTFDYWGQGTLVTVSS
VL: DIQVTQSPSSLSASVGDRVTITCRASQSMSYYLNWYQQKPGKAPKLLISAASSLQSGVPSRFSGSGSGTDFTLTISSLQPEDFATYYCQQSYSTPYTFGQGTKLEIK
B4: C68.170 (antibody, V domains shown)
VH: QVQLQESGPGLVKPSQTLSLTCTVSGGSISSGGYYWSWIRQHPKKDLEWIGYIYNSGSTYYNPSLKSRVTISIDTTKNQFSLKLSSVTAADTALYYCARSVGAAAQWGGEFDYWGQGTLVTVSS
VL: DIQLTQSPSSLSASVGDRVTITCQASQDISNYLNWYQQKPGKAPKLLIYDVFILQAGVPSRFSGSGSGTDFTFTISSLQPEDIATYYCQQYNHLITFGGGTKVEIK
B5: C68.233 (antibody, V domains shown)
VH: QVQLVQSGPEVKKPGTSVKVSCKASGFTFTTSAVQWVRQARGLRLEWIGWIVVGSGNTNYGQKFQERVTITRDMSTSTAYMELSSLRSEDTAVYYCAAPHCNRTNCHDGFDIWGQGTMVTVS
VL: EIVLTQSPGTLPLSPGERATLSCRASQSVRSSYLAWYQQKPGQAPRLLIYGASSRATGIPDRFSGSGSGTDFILTISRLEPEDFAVYSCQQYGSSPWTFGQGTKVEIK
B6: C68.102 (antibody, V domains shown)
VH: QLQLQESGPGLLKPSETLSLTCTVSGGSISSSRYYWGWIRQPPGKGLEWIGSVYYSGTTYYNPSLKSRVTISVDASKNQFSLRLSSVSAADTAVYYCARRLGAIWDWGQGTRVTVSS
VL: DIQLTQSPSSLSASVGDRVTITCRASQGISNSLAWYQQKPGKAPKLLLYAASTLESGVPSRFSGSGSGTDYTLTISSLQPEDFAAYYCQQYYSTPTFGQGTKVEIK
B7: C68.136 (antibody, V domains shown)
VH: EVQLLESGGGLVQPGGSLRLSCAASGFTFSIYAMSWVRQAPGKGLEWVSGISGSGGSTYYADSVKGRFTLSRDNSKNTLFLQMNSLRAEDTAVYYCAKGEGSVVVVSAGVWGKGTTVTVSS
VL: DIQLTQSPSSLSASVGDRITITCQASQDISKSLNWYQQKPGKAPKVLIYDASNLETGVPSRFSGSGSGTDFTFTISSLQPEDIATYYCQQYDNLRLTFGGGTKVEIK
B8: C68.180 (antibody, V domains shown)
VH: EVQLVESGGGLVKPGGSLRLSCAASGFTFIDYHMSWIRQAPGKGLEWVSYITTTSSYANYADSVKGRFTISRDNAKNSLFLQMNSLRADDTAVYYCARDRGYDLRFDYWGQGTLVTVSS
VL: DIQMTQSPSSLSASVGDRVTITCQASQGISNYLNWYQKKPGKAPKLLIYDASNLKTGVPSRFSGSGSGTDFTFTISSLQPEDIATYYCQQYDSLPLTFGGGTKVEIK

These results are taken from publication PMC11542851 (PLOS Pathogens, 2024).

In this experiment the target is SARS-CoV-2 RBD subunit (recombinant) (SARS-CoV-2 Wuhan-Hu-1, UniProt P0DTC2).
On to B1, for which the binding result was “binds”. The entry for B2 is “binds”; for B3 it is “binds”; for B4 it is “binds”. On to B5, for which the binding result is reported as “binds”. The result for B6 reads “binds”; that for B7, “binds”. On to B8, for which the binding result is given as “binds”.
